# Laboratory results as given in PMC9750922, “Improvement of thermoalkaliphilic laccase (CtLac) by a directed evolution and application to lignin degradation” (Applied Microbiology and Biotechnology, 2022).
# Positions count from the first letter of the chain named. Names and notes keep the numbering of the source.
# B1: CtLac (Caldalkalibacillus thermarum TA2.A1) (protein)
# chain: MKRILTLVLLLTVFIIVLVGCSTSPVDHSKMVHGEDDSTDNKQQEETQQIETSEGKVVINLEAKVTHWMFNNDLMEDIWTYNGSLPGQEIRVQEGDHVVINLTNSLDVPTSLHLHGVPVPNEMDGVPGVTQNAIMPGETFTYEFVADTPGTYWYHSHQDGANQIGMGLYGALVVEHKDQPDYDLDQVIMIDEWSSMGMADMDHSGMDHGDHGNMGDNSDQPPHAEMMNMMYDTLIVNGKASPVIEAIGVSEDDTIKLRFVNTGLFTQVITIPGHEFKVTHYDGQQVNEPELISDTAIRIAPAERYDVEIEMNQPGAWGIQIYAEENENLRGIVPLVYAGFEDEELQTADSIQSFLDISAYGSPMNVNFGEITKEFDMILGSDDGGETFTINGKQMTTKGFESHEDHEIYEVEEGDVVKVNIVNDTDVDHPMHLHGHFFYVVSRNGQPVKGSPILKETLNVRPNEAYEIVFVADNPGHWMFHCHELHHASGGMVSEVRYSGYTPAFTPDPNIPNKPE
# notes: 516 aa, full-length gene incl; N-terminal region in pET28a(+) (NdeI/XhoI), His-tagged, E. coli BL21(DE3), HisTrap purified; primers encode N-terminus MKRILTLVL and C-terminus IPNKPE
# B2: CtLac (Caldalkalibacillus thermarum TA2.A1; V243M) (protein)
# chain: B1 chain with V243M
# notes: as for B1
# B3: CtLac (Caldalkalibacillus thermarum TA2.A1; V243D) (protein)
# chain: B1 chain with V243D
# notes: as for B1
# Substrate: COc1cccc(OC)c1O
# Experiment: purified protein
# Type: biochemical, Caldalkalibacillus thermarum
# Details: 25 °C, pH 8.0, citrate phosphate buffer 50 mM, 1 mM CuCl2, air O2
Protein,Km [µM],kcat [s⁻¹],kcat/Km [M⁻¹ s⁻¹]
B1,157.2,1.1,7000
B2,674.2,0.1,100
B3,137.2,2.7,20000
